How the values were obtained:
[1] = target: H2BS6ADPr1 nucleosome, P68431
[2] = target: PARP1 (full-length, N-terminal 6xHis-tag) (UniProt P09874)
[3] = target: PARP1 (full-length, N-terminal 6xHis-tag) (UniProt P09874); remark: listed apart in the source

PARP1 (full-length, N-terminal 6xHis-tag), sequence (P09874 whole entry): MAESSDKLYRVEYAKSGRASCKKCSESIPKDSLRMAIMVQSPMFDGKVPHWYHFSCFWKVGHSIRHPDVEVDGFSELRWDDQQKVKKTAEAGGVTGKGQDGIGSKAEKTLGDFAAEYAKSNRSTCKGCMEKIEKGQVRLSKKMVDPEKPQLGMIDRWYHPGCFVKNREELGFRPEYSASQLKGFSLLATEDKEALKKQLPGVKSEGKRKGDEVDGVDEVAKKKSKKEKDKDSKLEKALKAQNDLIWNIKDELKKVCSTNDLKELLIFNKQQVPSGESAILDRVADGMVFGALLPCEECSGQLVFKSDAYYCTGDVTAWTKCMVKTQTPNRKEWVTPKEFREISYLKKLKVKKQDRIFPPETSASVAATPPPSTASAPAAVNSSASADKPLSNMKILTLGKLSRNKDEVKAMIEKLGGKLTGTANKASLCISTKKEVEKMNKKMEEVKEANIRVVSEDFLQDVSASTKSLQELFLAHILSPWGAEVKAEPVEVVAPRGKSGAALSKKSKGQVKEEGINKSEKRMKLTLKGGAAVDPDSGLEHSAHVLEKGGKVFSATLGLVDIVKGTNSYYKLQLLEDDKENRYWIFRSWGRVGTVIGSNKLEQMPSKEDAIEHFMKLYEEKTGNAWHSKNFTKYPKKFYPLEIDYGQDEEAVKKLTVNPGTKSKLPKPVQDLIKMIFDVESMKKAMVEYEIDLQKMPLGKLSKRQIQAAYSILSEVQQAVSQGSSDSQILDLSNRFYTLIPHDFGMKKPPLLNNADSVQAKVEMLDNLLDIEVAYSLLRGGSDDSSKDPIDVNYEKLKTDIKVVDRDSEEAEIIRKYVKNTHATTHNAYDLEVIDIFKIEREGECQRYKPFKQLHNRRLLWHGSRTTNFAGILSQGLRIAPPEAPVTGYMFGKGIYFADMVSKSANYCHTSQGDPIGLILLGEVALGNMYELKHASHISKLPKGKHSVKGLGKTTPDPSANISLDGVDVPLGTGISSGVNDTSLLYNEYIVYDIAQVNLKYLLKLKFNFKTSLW

ALC1 nucleosome remodeling rate constant (REA assay) [1] [min⁻¹] | inhibition of PARP1-catalyzed ADP-ribose polymerization from the H3S10ADPr1 peptide (RP-HPLC); HPF1 concentration at 50% inhibition [2] [µM] | share of mono-ADP-ribosylated H3 (1-20) peptide among the products of the PARP1 ADPr reaction (RP-HPLC), HPF1 from 5 μM to 100 μM [3] [%] | Binder
< 0.0003 | – | – | ALC1 (full-length, 6xHis-1xFLAG-ALC1), Q86WJ1 1-897 (enzyme, here or on the partner: mono-ADP-ribose on S6) MERAGATSRGGQAPGFLLRLHTEGRAEAARVQEQDLRQWGLTGIHLRSYQLEGVNWLAQRFHCQNGCILGDEMGLGKTCQTIALFIYLAGRLNDEGPFLILCPLSVLSNWKEEMQRFAPGLSCVTYAGDKEERACLQQDLKQESRFHVLLTTYEICLKDASFLKSFPWSVLVVDEAHRLKNQSSLLHKTLSEFSVVFSLLLTGTPIQNSLQELYSLLSFVEPDLFSKEEVGDFIQRYQDIEKESESASELHKLLQPFLLRRVKAEVATELPKKTEVVIYHGMSALQKKYYKAILMKDLDAFENETAKKVKLQNILSQLRKCVDHPYLFDGVEPEPFEVGDHLTEASGKLHLLDKLLAFLYSGGHRVLLFSQMTQMLDILQDYMDYRGYSYERVDGSVRGEERHLAIKNFGQQPIFVFLLSTRAGGVGMNLTAADTVIFVDSDFNPQNDLQAAARAHRIGQNKSVKVIRLIGRDTVEEIVYRKAASKLQLTNMIIEGGHFTLGAQKPAADADLQLSEILKFGLDKLLASEGSTMDEIDLESILGETKDGQWVSDALPAAEGGSRDQEEGKNHMYLFEGKDYSKEPSKEDRKSFEQLVNLQKTLLEKASQEGRSLRNKGSVLIPGLVEGSTKRKRVLSPEELEDRQKKRQEAAAKRRRLIEEKKRQKEEAEHKKKMAWWESNNYQSFCLPSEESEPEDLENGEESSAELDYQDPDATSLKYVSGDVTHPQAGAEDALIVHCVDDSGHWGRGGLFTALEKRSAEPRKIYELAGKMKDLSLGGVLLFPVDDKESRNKGQDLLALIVAQHRDRSNVLSGIKMAALEEGLKKIFLAAKKKKASVHLPRIGHATKGFNWYGTERLIRKHLAARGIPTYIYYFPRSKSAVLHSQSSSSSSRQLVP
– | 14 | 94 | FLAG-HPF1 (amino acids 27-346) (natural protein) KFCEADVSSDLRKEVENHYKLSLPEDFYHFWKFCEELDPEKPSDSLSASLGLQLVGPYDILAGKHKTKKKSTGLNFNLHWRFYYDPPEFQTIIIGDNKTQYHMGYFRDSPDEFPVYVGINEAKKNCIIVPNGDNVFAAVKLFLTKKLREITDKKKINLLKNIDEKLTEAARELGYSLEQRTVKMKQRDKKVVTKTFHGAGLVVPVDKNDVGYRELPETDADLKRICKTIVEAASDEERLKAFAPIQEMMTFVQFANDECDYGMGLELGMDLFCYGSHYFHKVAGQLLPLAYNLLKRNLFAEIIEEHLANRSQENIDQLAA
